The nature of data set [1]: CD activities in crude extracts of BL21 cells transformed with CD genes. Type of data set: biochemical. The conditions noted are these: cytosine 500 uM, triplicates, mean with standard deviation. How it is done: Bacteria or cell lines were grown as described, harvested and stored at −80° C. until activity testing. Cells were submitted to brief sonication in extraction buffer (50 mM Tris/HCl pH 7.5, 1 mM DTT, 10% (v/v) glycerol, 1% (v/v) Triton X-100, protease inhibitor cocktail Complete™ from Roche Diagnostics). Cytosine deaminase activities were determined spectrophotometrically by monitoring the absorbance decrease at 286 nm (Δε286=−0.68 mM^−1 cm^−1) resulting from the deamination of cytosine to uracil. Assays were initiated by the addition of CD to 0.5 mM cytosine in 50 mM Tris-HCL at pH 7.5 and 30° C. and followed for 150 sec. One unit of CD was defined to catalyze the formation of 1 μmol of uracil per min. Dual beam recording ZEIS spectrophotometer, thermostated at 30° C., was used for the assays.
To better characterize D. bruxellensis CD over expression of the protein in bacteria was done. In addition to D. bruxellensis CD, homologous genes from S. cerevisiae was also amplified from total genomic DNA and cloned as histidin tagged construct into pET100 bacterial expression vector. The plasmids were transformed into E. coli BL21 strain and protein expression was induced by IPTG for 8 hours. After harvesting, cell extracts were spectrophotometrically measured for cytosine and 5-FC deamination. All yeast CDs tested were functional when expressed in bacteria (Table 2).

The nature of data set [2]: CD activities with purified his-tagged proteins. It is filed as biochemical. The conditions noted are these: purified his-tagged protein, 37° C., cytosine 500 μM, triplicates, mean with standard deviation. As for the experimental part:
For recombinant protein expression, E. coli cells were grown to a density of A600 nm=0.5-0.6 in LB medium supplemented with 100 μg/ml ampicillin, and the expression was induced with 10 μM IPTG for 8 h at 25° C. The cells were harvested by centrifugation, and the pellet was resuspended in 25 ml ice-cold binding buffer A […] (50 mM sodium phosphate pH 8.0; 300 mM NaCl; 10% glycerol; 25 mM imidazole) containing protease inhibitor cocktail (Complete™-EDTA free from Roche Diagnostics). The cells were homogenized using a French Press, subjected to centrifugation at 12,000×g for 30 minutes (4° C.), filtered through a […] Whatman glass microfiber filter and a […] cellulose acetate filter, and loaded onto a 5 ml Ni^2+-NTA column (Qiagen). […]
Bacteria or cell lines were grown as described, harvested and stored at −80° C. until activity testing. […] Cytosine deaminase activities were determined spectrophotometrically by monitoring the absorbance decrease at 286 nm (Δε286=−0.68 mM^−1 cm^−1) resulting from the deamination of cytosine to uracil. […]
To characterize the substrate specificities of yeast CDs, purified proteins were measured at 37° C. and fixed cytosine concentration and assays was performed as described in Example 1 (Enzyme assays) (Table 3).

Data set [3] is classed as physicochemical. The conditions noted are these: storage at 50° C., his-tagged enzyme. As for the experimental part: Purified and his-tagged CD from D. bruxellensis and S. cerevisiae CD were assayed after different periods of storage at 50° C. and 37° C. (FIGS. 8a and 8b). Indeed, D. bruxellensis CD was extremely stable at 50° C. when compared to S. cerevisiae CD which lost all activity after only 4 minutes. Half life for D. bruxellensis CD at 50° C. was app. 3 hours (FIG. 8a). […] It should be observed that the temperature stability of the proteins without his-tags could be different.

B1: Sc CD (PZG738): cytosine deaminase from Saccharomyces cerevisiae (FCY1 gene), recombinant his-tagged protein in pET100 (protein, UniProt Q12178 1-158, looked up)
Cytosine deaminase: MVTGGMASKWDQKGMDIAYEEAALGYKEGGVPIGGCLINNKDGSVLGRGHNMRFQKGSATLHGEISTLENCGRLEGKVYKDTTLYTTLSPCDMCTGAIIMYGIPRCVVGENVNFKSKGEKYLQTRGHEVVVVDDERCKKIMKQFIDERPQDWFEDIGE
modifications: His tag
notes: cytosine deaminase from Saccharomyces cerevisiae (FCY1 gene), recombinant his-tagged protein in pET100
Take B1: the “CD activity, Cytosine” value is 40.69 ± 0.56 in data set [1] and 888.4 ± 4.8 U/mg/min in data set [2]. For the same molecule, the “Time after which all activity was lost” value in data set [3] was 4 min.
